Target: human PD-1 (programmed cell death protein-1) (human, UniProt Q15116 25-288)
Test: flow cytometry on enriched, anti-CD3-activated human T cells; sdAb-Fc titrated 167 nM to 0.00847 nM, anti-human IgG Alexa Fluor 647 detection
Method: For enrichment and activation of human T cells, Peripheral blood mononuclear cells (PBMCs) were isolated from human donor blood using density gradient centrifugation. Blood samples were diluted with PBS/2% FBS (1:2) and 30 mL of diluted blood was layered onto 15 mL of Lymphoprep density gradient medium. After centrifugation, the PBMC layer at the interphase of plasma and Lymphoprep was removed and remaining red blood cells were lysed using red blood cell lysis buffer for 5 minutes at room temperature. Non-T cell populations were labeled with biotinylated anti-lineage marker antibodies against CD14, CD16, CD19, CD20, CD36, CD56, CD123, TCR γ/δ (20 minutes, room temperature) and depleted using magnetic streptavidin particles. The unbound cell supernatant containing the T cell fraction was retained. Enriched human T cells were activated for 3 days by plating them at a density of about 2×10⁶ cells per mL media in tissue culture plates coated with 1 μg/mL mouse anti-human CD3 (OKT3). Activated T cells were washed once in PBS before further use in binding assays.

Chain of human PD-1 (programmed cell death protein-1) (Q15116 25-288 limits assumed): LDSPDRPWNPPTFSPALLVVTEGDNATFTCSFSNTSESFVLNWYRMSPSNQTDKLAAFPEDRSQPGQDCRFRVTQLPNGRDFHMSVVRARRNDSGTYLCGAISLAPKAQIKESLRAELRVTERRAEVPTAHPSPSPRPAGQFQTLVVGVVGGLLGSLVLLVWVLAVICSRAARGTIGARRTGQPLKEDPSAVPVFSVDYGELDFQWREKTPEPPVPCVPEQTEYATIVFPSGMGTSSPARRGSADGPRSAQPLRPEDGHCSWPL

B1: hz18H10v7 PD-1 sdAb-Fc fusion protein (humanized variant of 18H10) (Fc fusion)
chain: EVQLVESGGGEVQPGGSLRLSCAASGSITGANTMGWYRQAPGKQRDLVALIGNYVTHYAESVKGRFTISRDNAKNTVYLQMSSLRAEDTAVYYCYLYTDNLGTSWGQGTLVTVKP
notes: also called humanized 18H10 (hzv7); hzv7; not shown: hinge/linker and Fc of the sdAb-Fc fusion are not specified for the humanized variants
B1: binds.
